From patent US20150344570A1 (published 2015)

T1: FcγRIIa R (human, UniProt P12318 34-217)
T1 construct: extracellular domain; also called FcgRIIa R type; 2aR
T1 sequence (looked up): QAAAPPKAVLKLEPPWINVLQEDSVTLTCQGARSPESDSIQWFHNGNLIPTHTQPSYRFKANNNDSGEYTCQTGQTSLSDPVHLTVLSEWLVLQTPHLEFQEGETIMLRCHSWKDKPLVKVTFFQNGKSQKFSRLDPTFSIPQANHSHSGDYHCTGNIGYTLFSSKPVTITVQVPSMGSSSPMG


biological target: T1, FcγRIIa R; experiment: SPR (Biacore), captured antibody, FcγR as analyte; relative binding activity
Procedure: Analysis of interaction between objective antibody and the FcγR was carried out using Biacore T100 (GE Healthcare). HBS-EP+ (GE Healthcare) was used as the running buffer, and the measurement temperature was set to 25° C. Chips produced by immobilizing the antigen peptide by the amine coupling method to a Series S Sencor Chip CM5 (GE Healthcare), or alternatively, chips produced by allowing preliminarily biotinylated antigen peptides to interact with and immobilize onto a Series S Sensor Chip SA (certified) (GE Healthcare) were used. Antibodies of interest were captured onto an antigen peptide-immobilized chip, and allowed to interact to each FcγR diluted with running buffer. To regenerate and repeatedly use the chip, the antibodies captured on the chip were washed off by reacting 10 mM glycine-HCl, pH 1.5.

| Ho/Con_2aR | Binder |
| --- | --- |
| 26.7 % (GpH7-B3/GpL16-k0 = 100) | GpH7-B3 variant N325_01G/GpL16-k0 (antibody, human IgG1, kappa, also called Ho Ab N325_01G) heavy: not shown light: DIVMTQSPLSLPVTPGEPASISCQASESLVHSNRNTYLHWYLQKPGQSPQLLIYKVSNRFSGVPDRFSGSGSGTDFTLKISRVEAEDVGVYYCSQNTHVPPTFGQGTKVEIERTVAAPSVFIFPPSDEQLKSGTASVVCLLNNFYPREAKVQWKVDNALQSGNSQESVTEQDSKDSTYSLSSTLTLSKADYEKHKVYACEVTHQGLSSPVTKSFNRGEC |
| 80 % (GpH7-B3/GpL16-k0 = 100) | GpH7-B3 variant G236_14T/GpL16-k0 (antibody, human IgG1, kappa, also called Ho Ab G236_14T) heavy: not shown light: DIVMTQSPLSLPVTPGEPASISCQASESLVHSNRNTYLHWYLQKPGQSPQLLIYKVSNRFSGVPDRFSGSGSGTDFTLKISRVEAEDVGVYYCSQNTHVPPTFGQGTKVEIERTVAAPSVFIFPPSDEQLKSGTASVVCLLNNFYPREAKVQWKVDNALQSGNSQESVTEQDSKDSTYSLSSTLTLSKADYEKHKVYACEVTHQGLSSPVTKSFNRGEC |
| 98.3 % (GpH7-B3/GpL16-k0 = 100) | GpH7-B3 variant E333_07I/GpL16-k0 (antibody, human IgG1, kappa, also called Ho Ab E333_07I) heavy: not shown light: DIVMTQSPLSLPVTPGEPASISCQASESLVHSNRNTYLHWYLQKPGQSPQLLIYKVSNRFSGVPDRFSGSGSGTDFTLKISRVEAEDVGVYYCSQNTHVPPTFGQGTKVEIERTVAAPSVFIFPPSDEQLKSGTASVVCLLNNFYPREAKVQWKVDNALQSGNSQESVTEQDSKDSTYSLSSTLTLSKADYEKHKVYACEVTHQGLSSPVTKSFNRGEC |
| 96.2 % (GpH7-B3/GpL16-k0 = 100) | GpH7-B3 variant E333_15Y/GpL16-k0 (antibody, human IgG1, kappa, also called Ho Ab E333_15Y) heavy: not shown light: DIVMTQSPLSLPVTPGEPASISCQASESLVHSNRNTYLHWYLQKPGQSPQLLIYKVSNRFSGVPDRFSGSGSGTDFTLKISRVEAEDVGVYYCSQNTHVPPTFGQGTKVEIERTVAAPSVFIFPPSDEQLKSGTASVVCLLNNFYPREAKVQWKVDNALQSGNSQESVTEQDSKDSTYSLSSTLTLSKADYEKHKVYACEVTHQGLSSPVTKSFNRGEC |
| 36.2 % (GpH7-B3/GpL16-k0 = 100) | GpH7-B3 variant A330_05P/GpL16-k0 (antibody, human IgG1, kappa, also called Ho Ab A330_05P) heavy: not shown light: DIVMTQSPLSLPVTPGEPASISCQASESLVHSNRNTYLHWYLQKPGQSPQLLIYKVSNRFSGVPDRFSGSGSGTDFTLKISRVEAEDVGVYYCSQNTHVPPTFGQGTKVEIERTVAAPSVFIFPPSDEQLKSGTASVVCLLNNFYPREAKVQWKVDNALQSGNSQESVTEQDSKDSTYSLSSTLTLSKADYEKHKVYACEVTHQGLSSPVTKSFNRGEC |
| 96.5 % (GpH7-B3/GpL16-k0 = 100) | GpH7-B3 variant E333_09D/GpL16-k0 (antibody, human IgG1, kappa, also called Ho Ab E333_09D) heavy: not shown light: DIVMTQSPLSLPVTPGEPASISCQASESLVHSNRNTYLHWYLQKPGQSPQLLIYKVSNRFSGVPDRFSGSGSGTDFTLKISRVEAEDVGVYYCSQNTHVPPTFGQGTKVEIERTVAAPSVFIFPPSDEQLKSGTASVVCLLNNFYPREAKVQWKVDNALQSGNSQESVTEQDSKDSTYSLSSTLTLSKADYEKHKVYACEVTHQGLSSPVTKSFNRGEC |
| 113 % (GpH7-B3/GpL16-k0 = 100) | GpH7-B3 variant G237_04F/GpL16-k0 (antibody, human IgG1, kappa, also called Ho Ab G237_04F) heavy: not shown light: DIVMTQSPLSLPVTPGEPASISCQASESLVHSNRNTYLHWYLQKPGQSPQLLIYKVSNRFSGVPDRFSGSGSGTDFTLKISRVEAEDVGVYYCSQNTHVPPTFGQGTKVEIERTVAAPSVFIFPPSDEQLKSGTASVVCLLNNFYPREAKVQWKVDNALQSGNSQESVTEQDSKDSTYSLSSTLTLSKADYEKHKVYACEVTHQGLSSPVTKSFNRGEC |
| 99.1 % (GpH7-B3/GpL16-k0 = 100) | GpH7-B3 variant A330_19Q/GpL16-k0 (antibody, human IgG1, kappa, also called Ho Ab A330_19Q) heavy: not shown light: DIVMTQSPLSLPVTPGEPASISCQASESLVHSNRNTYLHWYLQKPGQSPQLLIYKVSNRFSGVPDRFSGSGSGTDFTLKISRVEAEDVGVYYCSQNTHVPPTFGQGTKVEIERTVAAPSVFIFPPSDEQLKSGTASVVCLLNNFYPREAKVQWKVDNALQSGNSQESVTEQDSKDSTYSLSSTLTLSKADYEKHKVYACEVTHQGLSSPVTKSFNRGEC |
| 84 % (GpH7-B3/GpL16-k0 = 100) | GpH7-B3 variant G237_02A/GpL16-k0 (antibody, human IgG1, kappa, also called Ho Ab G237_02A) heavy: not shown light: DIVMTQSPLSLPVTPGEPASISCQASESLVHSNRNTYLHWYLQKPGQSPQLLIYKVSNRFSGVPDRFSGSGSGTDFTLKISRVEAEDVGVYYCSQNTHVPPTFGQGTKVEIERTVAAPSVFIFPPSDEQLKSGTASVVCLLNNFYPREAKVQWKVDNALQSGNSQESVTEQDSKDSTYSLSSTLTLSKADYEKHKVYACEVTHQGLSSPVTKSFNRGEC |
| 104 % (GpH7-B3/GpL16-k0 = 100) | GpH7-B3 variant A327_10E/GpL16-k0 (antibody, human IgG1, kappa, also called Ho Ab A327_10E) heavy: not shown light: DIVMTQSPLSLPVTPGEPASISCQASESLVHSNRNTYLHWYLQKPGQSPQLLIYKVSNRFSGVPDRFSGSGSGTDFTLKISRVEAEDVGVYYCSQNTHVPPTFGQGTKVEIERTVAAPSVFIFPPSDEQLKSGTASVVCLLNNFYPREAKVQWKVDNALQSGNSQESVTEQDSKDSTYSLSSTLTLSKADYEKHKVYACEVTHQGLSSPVTKSFNRGEC |
| 92.4 % (GpH7-B3/GpL16-k0 = 100) | GpH7-B3 variant E333_04F/GpL16-k0 (antibody, human IgG1, kappa, also called Ho Ab E333_04F) heavy: not shown light: DIVMTQSPLSLPVTPGEPASISCQASESLVHSNRNTYLHWYLQKPGQSPQLLIYKVSNRFSGVPDRFSGSGSGTDFTLKISRVEAEDVGVYYCSQNTHVPPTFGQGTKVEIERTVAAPSVFIFPPSDEQLKSGTASVVCLLNNFYPREAKVQWKVDNALQSGNSQESVTEQDSKDSTYSLSSTLTLSKADYEKHKVYACEVTHQGLSSPVTKSFNRGEC |
| 106 % (GpH7-B3/GpL16-k0 = 100) | GpH7-B3 variant A330_11K/GpL16-k0 (antibody, human IgG1, kappa, also called Ho Ab A330_11K) heavy: not shown light: DIVMTQSPLSLPVTPGEPASISCQASESLVHSNRNTYLHWYLQKPGQSPQLLIYKVSNRFSGVPDRFSGSGSGTDFTLKISRVEAEDVGVYYCSQNTHVPPTFGQGTKVEIERTVAAPSVFIFPPSDEQLKSGTASVVCLLNNFYPREAKVQWKVDNALQSGNSQESVTEQDSKDSTYSLSSTLTLSKADYEKHKVYACEVTHQGLSSPVTKSFNRGEC |
| 55.3 % (GpH7-B3/GpL16-k0 = 100) | GpH7-B3 variant G237_06M/GpL16-k0 (antibody, human IgG1, kappa, also called Ho Ab G237_06M) heavy: not shown light: DIVMTQSPLSLPVTPGEPASISCQASESLVHSNRNTYLHWYLQKPGQSPQLLIYKVSNRFSGVPDRFSGSGSGTDFTLKISRVEAEDVGVYYCSQNTHVPPTFGQGTKVEIERTVAAPSVFIFPPSDEQLKSGTASVVCLLNNFYPREAKVQWKVDNALQSGNSQESVTEQDSKDSTYSLSSTLTLSKADYEKHKVYACEVTHQGLSSPVTKSFNRGEC |
| 101 % (GpH7-B3/GpL16-k0 = 100) | GpH7-B3 variant A330_12R/GpL16-k0 (antibody, human IgG1, kappa, also called Ho Ab A330_12R) heavy: not shown light: DIVMTQSPLSLPVTPGEPASISCQASESLVHSNRNTYLHWYLQKPGQSPQLLIYKVSNRFSGVPDRFSGSGSGTDFTLKISRVEAEDVGVYYCSQNTHVPPTFGQGTKVEIERTVAAPSVFIFPPSDEQLKSGTASVVCLLNNFYPREAKVQWKVDNALQSGNSQESVTEQDSKDSTYSLSSTLTLSKADYEKHKVYACEVTHQGLSSPVTKSFNRGEC |
| 56.6 % (GpH7-B3/GpL16-k0 = 100) | GpH7-B3 variant G237_08L/GpL16-k0 (antibody, human IgG1, kappa, also called Ho Ab G237_08L) heavy: not shown light: DIVMTQSPLSLPVTPGEPASISCQASESLVHSNRNTYLHWYLQKPGQSPQLLIYKVSNRFSGVPDRFSGSGSGTDFTLKISRVEAEDVGVYYCSQNTHVPPTFGQGTKVEIERTVAAPSVFIFPPSDEQLKSGTASVVCLLNNFYPREAKVQWKVDNALQSGNSQESVTEQDSKDSTYSLSSTLTLSKADYEKHKVYACEVTHQGLSSPVTKSFNRGEC |
| 87.5 % (GpH7-B3/GpL16-k0 = 100) | GpH7-B3 variant A330_15Y/GpL16-k0 (antibody, human IgG1, kappa, also called Ho Ab A330_15Y) heavy: not shown light: DIVMTQSPLSLPVTPGEPASISCQASESLVHSNRNTYLHWYLQKPGQSPQLLIYKVSNRFSGVPDRFSGSGSGTDFTLKISRVEAEDVGVYYCSQNTHVPPTFGQGTKVEIERTVAAPSVFIFPPSDEQLKSGTASVVCLLNNFYPREAKVQWKVDNALQSGNSQESVTEQDSKDSTYSLSSTLTLSKADYEKHKVYACEVTHQGLSSPVTKSFNRGEC |
| 103 % (GpH7-B3/GpL16-k0 = 100) | GpH7-B3 variant E269_09D/GpL16-k0 (antibody, human IgG1, kappa, also called Ho Ab E269_09D) heavy: not shown light: DIVMTQSPLSLPVTPGEPASISCQASESLVHSNRNTYLHWYLQKPGQSPQLLIYKVSNRFSGVPDRFSGSGSGTDFTLKISRVEAEDVGVYYCSQNTHVPPTFGQGTKVEIERTVAAPSVFIFPPSDEQLKSGTASVVCLLNNFYPREAKVQWKVDNALQSGNSQESVTEQDSKDSTYSLSSTLTLSKADYEKHKVYACEVTHQGLSSPVTKSFNRGEC |
| 97.1 % (GpH7-B3/GpL16-k0 = 100) | GpH7-B3 variant E333_08L/GpL16-k0 (antibody, human IgG1, kappa, also called Ho Ab E333_08L) heavy: not shown light: DIVMTQSPLSLPVTPGEPASISCQASESLVHSNRNTYLHWYLQKPGQSPQLLIYKVSNRFSGVPDRFSGSGSGTDFTLKISRVEAEDVGVYYCSQNTHVPPTFGQGTKVEIERTVAAPSVFIFPPSDEQLKSGTASVVCLLNNFYPREAKVQWKVDNALQSGNSQESVTEQDSKDSTYSLSSTLTLSKADYEKHKVYACEVTHQGLSSPVTKSFNRGEC |
| 120 % (GpH7-B3/GpL16-k0 = 100) | GpH7-B3 variant A327_09D/GpL16-k0 (antibody, human IgG1, kappa, also called Ho Ab A327_09D) heavy: not shown light: DIVMTQSPLSLPVTPGEPASISCQASESLVHSNRNTYLHWYLQKPGQSPQLLIYKVSNRFSGVPDRFSGSGSGTDFTLKISRVEAEDVGVYYCSQNTHVPPTFGQGTKVEIERTVAAPSVFIFPPSDEQLKSGTASVVCLLNNFYPREAKVQWKVDNALQSGNSQESVTEQDSKDSTYSLSSTLTLSKADYEKHKVYACEVTHQGLSSPVTKSFNRGEC |
| 106 % (GpH7-B3/GpL16-k0 = 100) | GpH7-B3 variant A330_01G/GpL16-k0 (antibody, human IgG1, kappa, also called Ho Ab A330_01G) heavy: not shown light: DIVMTQSPLSLPVTPGEPASISCQASESLVHSNRNTYLHWYLQKPGQSPQLLIYKVSNRFSGVPDRFSGSGSGTDFTLKISRVEAEDVGVYYCSQNTHVPPTFGQGTKVEIERTVAAPSVFIFPPSDEQLKSGTASVVCLLNNFYPREAKVQWKVDNALQSGNSQESVTEQDSKDSTYSLSSTLTLSKADYEKHKVYACEVTHQGLSSPVTKSFNRGEC |
| 99.9 % (GpH7-B3/GpL16-k0 = 100) | GpH7-B3 variant E333_05P/GpL16-k0 (antibody, human IgG1, kappa, also called Ho Ab E333_05P) heavy: not shown light: DIVMTQSPLSLPVTPGEPASISCQASESLVHSNRNTYLHWYLQKPGQSPQLLIYKVSNRFSGVPDRFSGSGSGTDFTLKISRVEAEDVGVYYCSQNTHVPPTFGQGTKVEIERTVAAPSVFIFPPSDEQLKSGTASVVCLLNNFYPREAKVQWKVDNALQSGNSQESVTEQDSKDSTYSLSSTLTLSKADYEKHKVYACEVTHQGLSSPVTKSFNRGEC |
